Patent US20260209362A1 (VIB VZW, published 2026)

T1: biotinylated human recombinant IL-12Rβ2 (produced in-house) (human, UniProt Q99665 24-622, random biotinylated)
T1 construct: Soluble recombinant protein used for panning, ELISA and BLI; also called hIL-12RB2; hIL12RB2
T1 sequence: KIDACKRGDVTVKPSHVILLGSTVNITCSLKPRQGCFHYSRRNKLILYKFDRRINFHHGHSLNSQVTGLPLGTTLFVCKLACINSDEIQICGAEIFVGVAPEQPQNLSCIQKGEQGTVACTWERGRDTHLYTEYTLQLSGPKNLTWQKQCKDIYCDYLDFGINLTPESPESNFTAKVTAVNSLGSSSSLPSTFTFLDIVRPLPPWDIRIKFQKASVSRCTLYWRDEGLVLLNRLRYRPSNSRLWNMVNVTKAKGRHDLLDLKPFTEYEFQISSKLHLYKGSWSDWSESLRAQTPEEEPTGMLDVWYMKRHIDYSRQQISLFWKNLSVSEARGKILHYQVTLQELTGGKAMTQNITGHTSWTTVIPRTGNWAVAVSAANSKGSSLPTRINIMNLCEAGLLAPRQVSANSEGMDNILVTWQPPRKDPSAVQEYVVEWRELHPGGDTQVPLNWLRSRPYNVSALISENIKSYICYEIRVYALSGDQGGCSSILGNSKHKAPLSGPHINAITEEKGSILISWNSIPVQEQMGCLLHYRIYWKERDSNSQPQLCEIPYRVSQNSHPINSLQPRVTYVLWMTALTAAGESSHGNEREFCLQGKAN

T2: biotinylated mouse recombinant IL-12Rβ2 (produced in-house) (mouse, UniProt P97378 24-637, random biotinylated)
T2 construct: Soluble recombinant protein used for panning, ELISA and BLI; also called mIL-12RB2; mIL12RB2
T2 sequence: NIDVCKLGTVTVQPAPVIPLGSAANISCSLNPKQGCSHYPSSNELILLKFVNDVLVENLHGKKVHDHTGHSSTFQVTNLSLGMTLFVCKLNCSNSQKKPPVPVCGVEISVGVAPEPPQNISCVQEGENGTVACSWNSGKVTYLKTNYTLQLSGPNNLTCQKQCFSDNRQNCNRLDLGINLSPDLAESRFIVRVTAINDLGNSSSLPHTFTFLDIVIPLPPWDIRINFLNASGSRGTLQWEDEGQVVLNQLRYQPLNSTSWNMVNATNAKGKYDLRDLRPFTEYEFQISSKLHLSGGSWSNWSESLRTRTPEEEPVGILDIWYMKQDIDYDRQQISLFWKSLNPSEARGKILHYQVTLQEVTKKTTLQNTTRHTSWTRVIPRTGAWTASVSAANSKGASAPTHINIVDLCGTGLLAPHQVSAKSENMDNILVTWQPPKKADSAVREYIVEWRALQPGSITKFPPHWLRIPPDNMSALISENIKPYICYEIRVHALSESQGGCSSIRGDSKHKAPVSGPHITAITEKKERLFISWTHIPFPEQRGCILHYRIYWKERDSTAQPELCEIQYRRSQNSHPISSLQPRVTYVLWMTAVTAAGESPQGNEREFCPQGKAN

T3: human IL-12Rβ2 expressed on cells (human, UniProt Q99665 24-862)
T3 construct: the cell lines are described by plasmid or cDNA number only; also called hIL-12RB2; HEK293T transiently transfected with human IL-12Rβ2
T3 sequence: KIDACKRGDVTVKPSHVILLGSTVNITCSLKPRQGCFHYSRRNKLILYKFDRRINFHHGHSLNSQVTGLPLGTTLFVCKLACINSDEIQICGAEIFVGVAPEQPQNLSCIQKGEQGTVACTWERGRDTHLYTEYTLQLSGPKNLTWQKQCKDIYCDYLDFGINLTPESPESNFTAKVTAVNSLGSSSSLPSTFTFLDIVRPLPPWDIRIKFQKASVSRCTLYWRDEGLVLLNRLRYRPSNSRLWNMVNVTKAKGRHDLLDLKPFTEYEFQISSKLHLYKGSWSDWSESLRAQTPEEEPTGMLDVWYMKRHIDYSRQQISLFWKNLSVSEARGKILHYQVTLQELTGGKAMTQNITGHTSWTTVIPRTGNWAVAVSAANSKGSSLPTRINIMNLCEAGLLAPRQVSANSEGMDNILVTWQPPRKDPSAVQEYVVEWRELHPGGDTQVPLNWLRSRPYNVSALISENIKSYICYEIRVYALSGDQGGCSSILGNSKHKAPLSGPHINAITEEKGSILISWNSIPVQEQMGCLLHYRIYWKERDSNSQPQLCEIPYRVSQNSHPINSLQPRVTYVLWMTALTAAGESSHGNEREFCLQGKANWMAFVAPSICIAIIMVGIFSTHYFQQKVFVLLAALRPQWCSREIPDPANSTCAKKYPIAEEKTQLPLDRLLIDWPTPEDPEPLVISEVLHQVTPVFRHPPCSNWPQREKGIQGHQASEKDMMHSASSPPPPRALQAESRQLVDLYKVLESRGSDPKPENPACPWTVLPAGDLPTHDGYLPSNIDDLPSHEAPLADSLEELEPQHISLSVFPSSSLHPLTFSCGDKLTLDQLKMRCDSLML

T4: mouse IL-12Rβ2 expressed on cells (mouse, UniProt P97378 24-874)
T4 construct: the cell lines are described by plasmid or cDNA number only; also called mIL-12RB2; HEK293T transiently transfected with mouse IL-12Rβ2
T4 sequence: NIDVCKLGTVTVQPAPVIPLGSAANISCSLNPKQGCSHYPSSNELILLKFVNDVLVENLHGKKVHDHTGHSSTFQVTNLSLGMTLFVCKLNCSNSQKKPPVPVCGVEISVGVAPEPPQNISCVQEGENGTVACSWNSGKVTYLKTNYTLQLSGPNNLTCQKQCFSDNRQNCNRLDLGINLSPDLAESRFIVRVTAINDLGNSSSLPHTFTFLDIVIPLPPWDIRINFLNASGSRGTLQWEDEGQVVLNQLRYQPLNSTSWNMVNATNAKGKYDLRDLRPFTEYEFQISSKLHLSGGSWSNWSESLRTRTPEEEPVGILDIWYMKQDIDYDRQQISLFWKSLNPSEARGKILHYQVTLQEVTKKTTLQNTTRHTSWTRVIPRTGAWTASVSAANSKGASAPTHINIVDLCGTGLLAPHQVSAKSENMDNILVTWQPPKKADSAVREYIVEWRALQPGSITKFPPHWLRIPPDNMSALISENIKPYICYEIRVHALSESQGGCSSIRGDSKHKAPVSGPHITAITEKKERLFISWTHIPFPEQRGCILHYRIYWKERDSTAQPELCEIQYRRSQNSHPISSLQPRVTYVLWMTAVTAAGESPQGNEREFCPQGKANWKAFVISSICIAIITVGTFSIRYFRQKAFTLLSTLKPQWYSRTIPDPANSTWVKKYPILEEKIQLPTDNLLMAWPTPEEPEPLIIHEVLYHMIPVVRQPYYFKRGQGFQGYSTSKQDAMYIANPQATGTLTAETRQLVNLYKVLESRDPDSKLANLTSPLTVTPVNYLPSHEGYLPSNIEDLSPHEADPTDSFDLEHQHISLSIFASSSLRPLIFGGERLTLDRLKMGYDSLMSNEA

T5: biotinylated recombinant human IL-12Rβ2 (human, UniProt Q99665 24-622, random biotinylated)
T5 construct: Recombinant protein produced in-house; also called hIL-12RB2; human IL-12RB2
T5 sequence: T1 sequence

T6: biotinylated recombinant mouse IL-12Rβ2 (mouse, UniProt P97378 24-637, random biotinylated)
T6 construct: Recombinant protein produced in-house; also called mIL-12RB2; mouse IL-12RB2
T6 sequence: T2 sequence

B1: anti-IL-12Rβ2 VHH clone 3CRHM14 (clone ID 21053) (VHH)
VHH: QVQLQESGGGLVQAGGSLRLSCAASGRTFSNYAMAWFRQAPGTEREFVAGLSGSGGDTEFYDDSVKGRFAISRDSAKNTVWLQMNSLKPEDTAVYYCAAATHVVVHYGLVRRRGTYDYWGQGTQVTVSS
notes: Tested as periplasmic extract; not shown: C-terminal HA tag
B2: anti-IL-12Rβ2 VHH clone 3CRHM99 (clone ID 21062) (VHH)
VHH: QVQLQESGGGLVQPGGSLRLSCAASGISSSRLHVGWFRQSPGKEREFVAAISLSGGTQAYTDSVKGRFTISGDNVKNTAYLQMNSLRPEDTAVYYCAARERFIWTWSDLTYDYWGQGTQVTVSS
notes: as for B1
B3: anti-IL-12Rβ2 VHH clone 3CRHM73 (clone ID 21060) (VHH)
VHH: QVQLQESGGGLVQAGGSLSLSCAASGSAFRLNFMGWYRQAPGKQRELVAAINSGGTEIYHDSVKGRFTISRDNADSTVWLQMNSLKPDDTAVYYCAADRGISWSKLAGGMDYWGKGTQVTVSS
notes: as for B1
B4: anti-IL-12Rβ2 VHH clone 3CAHM11 (clone ID 21050) (VHH, not shown: small tags and cut ends)
VHH: QVQLQESGGGLVQAGGSLRLSCAASGRTFNNYAMAWFRQAPGKEREFIAAITRSDTTLYIDSVKGRFTISRDNAKNTVALQMNSLKPEDTAVYYCAAGMPYSYSDYPRDSKYDYWGRGTQVTVSS
notes: periplasmic extract
B5: anti-IL-12Rβ2 VHH clone 3CRH83 (clone ID 20390) (VHH, not shown: small tags and cut ends)
VHH: QVQLQESGGGLVQAGGSLKLSCAASGNTFSINAMAWYRQAPGQELELVAAISDVGNTIYADSMKGRFTISRGNADNTVYLQMNSLKPEDTATYYCNAGTFYTSPGDSYYRGYDFWGQGTQVTVSS
notes: periplasmic extract

What was measured:
[1] = target: T1, biotinylated human recombinant IL-12Rβ2 …; assay: BLI (Octet Red), periplasmic extract on biotinylated human IL-12Rβ2 on streptavidin tips
[2] = target: T2, biotinylated mouse recombinant IL-12Rβ2 …; assay: BLI (Octet Red), periplasmic extract on biotinylated mouse IL-12Rβ2 on streptavidin tips
[3] = target: T1, biotinylated human recombinant IL-12Rβ2 …; assay: ELISA, periplasmic extract on biotinylated human IL-12Rβ2; signal over streptavidin control well
[4] = target: T2, biotinylated mouse recombinant IL-12Rβ2 …; assay: ELISA, periplasmic extract on biotinylated mouse IL-12Rβ2; signal over streptavidin control well
[5] = target: T3, human IL-12Rβ2 expressed on cells; assay: flow cytometry, periplasmic extract VHH-HA on HEK293T cells transiently expressing human IL-12Rβ2
[6] = target: T4, mouse IL-12Rβ2 expressed on cells; assay: flow cytometry, periplasmic extract VHH-HA on HEK293T cells transiently expressing mouse IL-12Rβ2
[7] = target: T1, biotinylated human recombinant IL-12Rβ2 …; assay: BLI (Octet Red), periplasmic extract on biotinylated human IL-12Rβ2 on streptavidin tips, 1:1 model
[8] = target: T2, biotinylated mouse recombinant IL-12Rβ2 …; assay: BLI (Octet Red), periplasmic extract on biotinylated mouse IL-12Rβ2 on streptavidin tips, 1:1 model
[9] = target: T5, biotinylated recombinant human IL-12Rβ2; assay: BLI, P.E., off-rate ranking
[10] = target: T6, biotinylated recombinant mouse IL-12Rβ2; assay: BLI, P.E., off-rate ranking
[11] = target: T5, biotinylated recombinant human IL-12Rβ2; assay: ELISA, P.E., biotinylated antigen
[12] = target: T6, biotinylated recombinant mouse IL-12Rβ2; assay: ELISA, P.E., biotinylated antigen

Row | Binder | Response [1] | Response [2] | hIL12RB2/control (ELISA) [3] | mIL12RB2/control (ELISA) [4] | % cells bound [5] | dMFI [5] | % cells bound [6] | dMFI [6] | koff [7] | koff [8] | Response [9] | koff [9] | Response [10] | koff [10] | ELISA hIL-12RB2/control [11] | ELISA mIL-12RB2/control [12]
1 | B1 | 1.19 | 0.957 | 3.11 ratio | 25.1 ratio | 35.8% | 589 | 18.6% | 312 | 0.00532 s⁻¹ | 0.00483 s⁻¹ |  |  |  |  |  | 
2 | B2 | 1.45 | 0.812 | 4.24 ratio | 5.24 ratio | 24.4% | 458 | 10.7% | 251 | 0.00634 s⁻¹ | 0.00671 s⁻¹ |  |  |  |  |  | 
3 | B3 | 1.45 | 0.944 | 6.9 ratio | 26.3 ratio | 19.5% | 297 | 10.4% | 257 | 0.00605 s⁻¹ | 0.00605 s⁻¹ |  |  |  |  |  | 
4 | B4 |  |  |  |  |  |  |  |  |  |  | 1.4 | 0.00519 s⁻¹ | 1.03 | 0.00462 s⁻¹ | 3.04 | 38.8
5 | B5 |  |  |  |  |  |  |  |  |  |  | 0.693 | 0.00528 s⁻¹ | 1.35 | 0.00722 s⁻¹ | 8.46 | 14
